According to the supplement of paper PMC7877785:
± gives the uncertainty stated by the source.

Assay: self-splicing fitness, log relative to wild type (ln ratio); higher = more splicing; Tetrahymena group I intron in knt gene, E. coli kanamycin selection, DiMSum; sequences stand for … in CUCUCU…GGAGGGAAAAGUUAUCAGGCAUGCACCUGGUAGCUAGUCUUUAAACCAAUAGAUUGCAUCGGUUUAAAAGGCAAGACCGUCAAAUUGCGGGAAAGGGGUCAACAGCCGUUCAGUACCAAGUCUCAGGGGAAACUUUGAGAUGGCCUUGCAAAGGGUAUGGUAAUAAGCUGACGGACAUGGUCCUAACCACGCAGCCAAGUCCUAAGUCAACAGAUCUUCUGUUGAUAUGGAUGCAGUUCACAGACUAAAUGUCGGUCGGGGAAGAUGUAUUCUUCUCAUAAGAUAUAGUCGGACCUCUCCUUAAUGGGAGCUAGCGGAUGAAGUGAUGCAACACUGGAGCCGCUGGGAACUAAUUUGUAUGCGAAAGUAUAUUGAUUAGUUUUGGAGUACUCGUGGUCG
Procedure, shortened: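 The eight P1ex-region nucleotides of an intron in the knt kanamycin-resistance gene on pET-22b(+) were all randomised and the library put into E. coli BL21(DE3). Six replicate transformations were grown overnight at 37°C or 30°C on LB agar with or without 25 μg/mL kanamycin, together with 100 μg/mL carbenicillin, 50 μM IPTG and 0.2% rhamnose. Colonies were pooled and amplicon-sequenced on an Illumina HiSeq 2500. Fitness from DiMSum is the error-weighted combination of wild-type-normalised replicate fold changes, kanamycin over none.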

Row | Sequence | self-splicing fitness (ln) (30 °C) | self-splicing fitness (ln) (37 °C)
1 | GUAAAGCAAUAUUACGGCUG | 0.0741 ± 0.066 | 0.175 ± 0.088
2 | GUGCAGCAAUAUUACGCGUU | -2.7 ± 0.11 | -1.18 ± 0.1
3 | CAAGAGCAAUAUUACGGAAA | -2.9 ± 0.22 | -2.82 ± 0.22
4 | GGAGAGCAAUAUUACGUUCU | -3.27 ± 0.25 | -3.5 ± 0.39
5 | UCGGAGCAAUAUUACGCACA | -2.26 ± 0.46 | -2.22 ± 0.43
6 | GUUUAGCAAUAUUACGAUCC | -0.72 ± 0.26 | -0.434 ± 0.32
7 | AACAAGCAAUAUUACGGAUG | -2.4 ± 0.08 | -2.37 ± 0.096
8 | CGCGAGCAAUAUUACGGUAU | -3.65 ± 0.34 | -2.81 ± 0.34
9 | GCGCAGCAAUAUUACGAUGA | -0.132 ± 0.099 | -0.33 ± 0.092
10 | GAGAAGCAAUAUUACGAGCG | -1.15 ± 0.16 | -0.106 ± 0.18
11 | ACUUAGCAAUAUUACGGUGC | -3.78 ± 0.24 | -1.06 ± 0.17
12 | UCUUAGCAAUAUUACGUUUU |  | -1.8 ± 0.23
13 | AUUAAGCAAUAUUACGUAUU | -2.15 ± 0.13 | -1.85 ± 0.16
14 | UUGUAGCAAUAUUACGGGUC | -3.03 ± 0.22 | -2.83 ± 0.4
15 | GAUGAGCAAUAUUACGAGGA | -2.63 ± 0.17 | -2.89 ± 0.15
16 | CGCGAGCAAUAUUACGGGAA | -3.74 ± 0.27 | -2.4 ± 0.29
17 | GACCAGCAAUAUUACGGUGA | -0.339 ± 0.057 | -0.154 ± 0.081
18 | CUCUAGCAAUAUUACGCGGU | -3.25 ± 0.26 | -2.59 ± 0.29
19 | ACGUAGCAAUAUUACGGGAG | -3.63 ± 0.17 | -2.28 ± 0.17
20 | CCAGAGCAAUAUUACGGGGA | -3.06 ± 0.18 | -2.61 ± 0.21
21 | GUCAAGCAAUAUUACGCCGU | -2.32 ± 0.31 | -0.783 ± 0.27
22 | UCUCAGCAAUAUUACGUACG | -2.45 ± 0.14 | -1.26 ± 0.13
23 | AUUGAGCAAUAUUACGAUCU | -1.28 ± 0.11 | -0.471 ± 0.14
24 | GCUCAGCAAUAUUACGUUAG | -2.79 ± 0.13 | -0.765 ± 0.12
25 | AACAAGCAAUAUUACGGAUA | -3.95 ± 0.2 | -2.18 ± 0.12
26 | AACAAGCAAUAUUACGGCCC | -0.249 ± 0.12 | -0.0486 ± 0.2

Row | Sequence | self-splicing fitness (ln) (30 °C) | self-splicing fitness (ln) (37 °C)
27 | AAGUAGCAAUAUUACGCUAU | -4.06 ± 0.35 | -1.9 ± 0.17
28 | UCCGAGCAAUAUUACGUCUA | -3.11 ± 0.23 | -3 ± 0.24
29 | UCACAGCAAUAUUACGGGGU | -3.58 ± 0.14 | -2.67 ± 0.18
30 | GAUCAGCAAUAUUACGUUUG | -1.53 ± 0.058 | 0.151 ± 0.08
31 | GAGGAGCAAUAUUACGAGGG |  | -1.96 ± 0.41
32 | UGGGAGCAAUAUUACGAUUG |  | -2.29 ± 0.4
33 | GCAAAGCAAUAUUACGUCGG | -3.15 ± 0.19 | -1.22 ± 0.13
34 | GGUCAGCAAUAUUACGGUUG | -1.07 ± 0.1 | -0.43 ± 0.12
35 | CUGAAGCAAUAUUACGAGCA | -3.59 ± 0.19 | -2.01 ± 0.2
36 | GAGCAGCAAUAUUACGCGAG | -2.38 ± 0.14 | -0.876 ± 0.12
37 | UCAGAGCAAUAUUACGACCA | -2.73 ± 0.38 | -2.63 ± 0.47
38 | ACGUAGCAAUAUUACGACAU | -0.126 ± 0.012 | 0.0543 ± 0.032
39 | ACUAAGCAAUAUUACGGGCU | -0.833 ± 0.089 | -0.736 ± 0.083
40 | GAAUAGCAAUAUUACGGGAC | -3.37 ± 0.31 | -2.53 ± 0.3
41 | ACGUAGCAAUAUUACGUGUU | -3.73 ± 0.13 | -2.37 ± 0.13
42 | GUUCAGCAAUAUUACGUGAC | -1.85 ± 0.11 | -2.22 ± 0.12
43 | AACUAGCAAUAUUACGUAGC | -4.04 ± 0.26 | -2.12 ± 0.21
44 | AGAGAGCAAUAUUACGUGAG | -3.12 ± 0.17 | -2.9 ± 0.26
45 | CGUAAGCAAUAUUACGAUAA | -2.66 ± 0.23 | -1.86 ± 0.24
46 | GGGUAGCAAUAUUACGCUAU | -2.86 ± 0.22 | -2.98 ± 0.31
47 | GUGUAGCAAUAUUACGGAUU | -2.13 ± 0.087 | -1.16 ± 0.11
48 | GCCAAGCAAUAUUACGUACC | -1.28 ± 0.1 | -0.683 ± 0.15
49 | GAACAGCAAUAUUACGUUAA | -0.997 ± 0.068 | -0.105 ± 0.08
50 | UAAAAGCAAUAUUACGCGUC | -3.53 ± 0.24 | -2.7 ± 0.21
51 | GAUGAGCAAUAUUACGGACG |  | -1.49 ± 0.26
52 | AUGGAGCAAUAUUACGCUAA | -3.13 ± 0.45 | -1.32 ± 0.45

Row | Sequence | self-splicing fitness (ln) (30 °C) | self-splicing fitness (ln) (37 °C)
53 | AAUGAGCAAUAUUACGGCUC | -1.82 ± 0.23 | -2.03 ± 0.38
54 | GCAGAGCAAUAUUACGCGCA | -2.97 ± 0.24 | -1.61 ± 0.17
55 | UUGGAGCAAUAUUACGCUGA | -1.98 ± 0.17 | -1.5 ± 0.16
56 | GUGAAGCAAUAUUACGUUGG | -2.81 ± 0.13 | -1.65 ± 0.12
57 | GAAAAGCAAUAUUACGCCAC | -5.15 ± 0.38 | -2.7 ± 0.36
58 | AACUAGCAAUAUUACGCGUC | -1.95 ± 0.12 | -1.65 ± 0.14
59 | UACUAGCAAUAUUACGAUGC | -4.22 ± 0.26 | -2.54 ± 0.3
60 | CCCUAGCAAUAUUACGCUAC | -2.96 ± 0.34 | -1.84 ± 0.43
61 | AUCAAGCAAUAUUACGAAAA | -2.84 ± 0.36 | -2.03 ± 0.27
62 | GCCAAGCAAUAUUACGCCUU | -2.83 ± 0.13 | -1.26 ± 0.12
63 | CCUCAGCAAUAUUACGCGCA | -3.31 ± 0.27 | -2.74 ± 0.23
64 | CGUCAGCAAUAUUACGGGAA | -3.68 ± 0.43 | -1.18 ± 0.18
65 | GUCAAGCAAUAUUACGGGCU | -4.5 ± 0.25 | -4.77 ± 0.31
66 | UAUGAGCAAUAUUACGCAAC | -2.22 ± 0.32 | -2.49 ± 0.44
67 | GUGCAGCAAUAUUACGACAC | -1.57 ± 0.25 | -0.906 ± 0.2
68 | CUGCAGCAAUAUUACGUGAA | -4.94 ± 0.45 | -3.45 ± 0.23
69 | ACGCAGCAAUAUUACGGAAA | -2.7 ± 0.33 | -0.506 ± 0.21
70 | ACAUAGCAAUAUUACGUUGC | -4.02 ± 0.33 | -2 ± 0.28
71 | CACCAGCAAUAUUACGGACA | -2.01 ± 0.1 | -0.603 ± 0.086
72 | GUAAAGCAAUAUUACGGCAC | 0.217 ± 0.12 | 0.134 ± 0.15
73 | CAAAAGCAAUAUUACGGCAA | -1.96 ± 0.17 | -0.93 ± 0.14
74 | AUGGAGCAAUAUUACGAACU | -1.95 ± 0.28 | -1.45 ± 0.24
75 | AGCUAGCAAUAUUACGUUUU | -2.36 ± 0.14 | -2.18 ± 0.16
76 | CUUCAGCAAUAUUACGCGGC | -3.24 ± 0.36 | -1.01 ± 0.19
77 | CCCGAGCAAUAUUACGUGCC | -4.31 ± 0.3 | -3.26 ± 0.37
